# Test: soluble on expression in E. coli; label from the status in PepcDB or PDB records
row,Sequence,soluble on expression in E. coli
1,MSLQIAGKVVVVTGGGNGIGQALCEAFHKAGAAKVVVADLDQARAEAVAASIGGAAFKCDVANEADIKHVIEETERQFGPIDLFCSNAGIGGGFDPMAENAGGASDEPFMKSWMIHVMAHVYAARHLVPRYRARGGGYFLNTISAAGLLSQVGSPAYSATKHGAVGFAESLAIAHKAHNIRVSILCPQGVDTNMLRSIPKGPQSADGDLTAEQVAKDALQGIEQETFLILPHPQVIDYMRKKTEGHHHHHH,soluble
2,MSLQIIEPDNLIKEGDLRSIRAKTLQSARGIISDRNGEALAVSVPVEAVWADPVAIYKEGGLVEKDRWYALADVLGLDRQEMMKKIEDNRSRRFIYLQRQVSPAMAKYIRELKLAGIGLKEESRRYYPAGEVSAHLVGVTGIDGHGLEGVERSFDSTLTGESGKSVTRKDKFGRVVENIALEEREEGKPIQLTIDQRLQAIAFRAVKQAMADYRATSASAVMLDVKTGAVLAMVNAPSYNPNNRNDWQSFKMRNRVITDAFEPGSTVKPFVVLAALANGIADKNTIIDTGDGTMQIGGSRVRDTSKVGKADLTLILKKSSNIGVAKLALEMPLEALLGMYSSVGLGEMSGLDLVGETIGIFPNRRRWSQFEIATLSFGYGLAITPIQLAHAYATLGNHGKYQPIHIIKGDQHGETRQVVDPKYVNQVLEMLETVTQPGGTATRAAVPGYRIAAKSGTSRKAIAGGYSDEYFAYTAGVAPVSDPRISLVVMVNEPQGDSYYGGAVAGPVFSEIMKGALQILNIAPDENRFQNEGHHHHHH,soluble
3,MSLQITGVNQYHLEHRLEEPFHPTWIPGYPQSTHELELFEIETDAGITGYGASPSFAGGLDYETPLELFLTGEDPHNVDGILGKLETVNLVGPRPWHIEMALWDIIGKDAGKPVCELFGAEQRAIPAYASSGEIQPADERIDYVEQRIDEGFDAVKLRVTETDHIETVRAVRESFPDLTLMVDANKGWAVRVMEEPTEWSFSDALEFARELDAVGGVEWLEEPLHRHDYDGYARLRDAVDVNIAGGEFNNGIHHFREFVDRGSLDILQPDAALATGIRRAVDVARMGEANGLQFVPHTWTNAVGFAANLHVMTAVGSPWCEYPMEPPWTPDVWSFMLEDGFEHDDGVVRAPSKPGLGIEIPDKVLEDAGEGHHHHHH,soluble
4,MSLQLRHNRTLLENLADRQTMALQQFVDGDIHFIGSAANFFRSSTSDDWVRFHTFAEETLKGSQSLIALQWLVKVEPPQAETFTARMQQRFPEFTLYTVPKTGEIKYGFGTDDQAKYVLSDIYPLNYDNRKLLGFYSERERFKRILADIVVNRRPNVSDKVRLLQDGIDKSIVKDGMLVYHPVFSSEDDRSLLGVMVGVVRLSTYFEKLVQISVMEQDLDMRVIDTGFDSEDSPVLYQSPMWRADDEPKIERKLVLPNRDWVLEFELHQPINHSEELEHHHHHH,soluble
5,MSLQSLIGLMRPETGKKLENLNHFIQQFEKVLIAFSGGVDSSTLAAVCSNAGVEVLAVTVLSSVSPRREMEEAKRIAEELGVRHEFLKIDLMDEDFRRNDENRCYYCKRRVLSALVEEAKKRGIEVVLEGTNASDLSDHRPGYRAVRELDGVNSPWVEFGITKEEIREIARSMGYSFHDKPSMACLASRIPFGIEIDEEKLKMVDEAEEAVIELAGVKQVRVRNYDGVAVVEVAGDELRKLLNCAEKVRDKLKKIGFRAVLIDLEGYRSGKRLFKFEGHHHHHH,soluble
6,MSLRANCLVQTTEWSACSKTCGMGISTRVTNDNASCRLEKQSRLCMVRPCEADLEENIKKGKKCIRTPKISKPIKFELSGCTSMKTYRAKFCGVCTDGRCCTPHRTTTLPVEFKCPDGEVMKKNMMFIKTCACHYNCPGDNDIFESLYYRKMYGDMAEGHHHHHH,not soluble
7,MSLRAQSTNTIGVLVSRISNPFFAQLFDALERELNGYGFQVMVMQTHDDALAEQHFLDKLKQQQVDGVILASIENQQLVAQLSATYANQMVLLNEEATDIGIPMISLNHYQATKDALAYLYHQGHRRIAYATGGDFPSTHHGRSRTQAYLDFCEEQQLVVNNNWVFAQQHTIADGQALGKQLASLNPSDRPTAVFTNSDEVAVGVIDELQQQHFRVPDDMAVMGYDDQPFAAVAQVPLTTVRQPVAAMAQLAVDQLLHHLGRLQRPELAIDLSLDLIKRKSAEGHHHHHH,soluble
8,MSLRAYIPIDKYSLPEKFEIPLGNTNYIFEVDYNQTEKFFTVDLYDIDHTPIAIGERMVIDERLWQDIVDTRLPSADLVPMDESGASKEITFENFGIQVFLYIDDLPPNYNVPSLEREDN,not soluble
9,MSLRDTQTQLRNEMIYSVFVRNYSEAGNFAGVTADLQRIKDLGTDILWLLPINPIGEVNRKGTLGSPYAIKDYRGINPEYGTLADFKALTDRAHELGMKVMLDIVYNHTSPDSVLATEHPEWFYHDADGQLTNKVGDWSDVKDLDYGHHELWQYQIDTLLYWSQFVDGYRCDVAPLVPLDFWLEARKQVNAKYPETLWLAESAGSGFIEELRSQGYTGLSDSELYQAFDMTYDYDVFGDFKDYWQGRSTVERYVDLLQRQDATFPGNYVKMRFLENHDNARMMSLMHSKAEAVNNLTWIFMQRGIPLIYNGQEFLAEHQPSLFDRDTMVADRHGDVTPLIQKLVTIKQLPLLRAADYQLAVVEEGIVKITYRAAGEALTAWIPLKGQVTAVATKLAAGSYQNLLTDGPTEVVDGKLTVDGQPVLIKYVTNTAVTKVADQSNEGHHHHHH,soluble
10,MSLRIAIQGCSHGSLAQIYDVVNYYSSQTKNPIDLLLLCGDFQALRSKHDYASLAVPAKFKQLGSFHQYYSGERVAPVLTIVIGGNHEASNYMWELYHGGWLAPSIYYLGAAGSVYMNGLRIVGASGIYKGFDYRKGHFEKVPYNDKELRSIYHIREYDVEKLMHLTPSPSTIFLSHDWPTTIAHHGNKNALLKRKPFFRDENTLGSPPLLRLMNHFQPSYWFSAHLHVKFAALYEHQAPSHGPDVDGGAPLPLPAMSTAIAQTGNEGHHHHHH,not soluble
11,MSLRKLYTKELSVTGSAINHHRIFDSSAHFKGALTIKILPENTAMFNPLHESYCLPMDTNLFKINSIDVPIRINSTEEIEYIELEYRDLYTNSVELRSLSKKDFKIIDNPKSFLKKDQSVLKSHSNDFEEGSTIRYLAVTLQDIGFYQIKKIVDSKKLNLKIHQSHLVVPYCPIASITGTGSNDRCIGDSDNVSFEIQGVPPMKLAYSKIVNGQTFSYVDSSLQPEYFESPLQSSKSKQSFTQGELNDLKWGRNQPVNINLDSSITQDGKFAYKIDKITDGLGNVVDFTSLPEELKKREGHHHHHH,soluble
12,MSLRLADFGFTDGINEIIAITENEDGSWNAAPIGIIVEDSSSDTAKAKLYRNRTRANLERSGVLFANVTDDALVFAVSSFGNLNDDWYASPNPPIIKGAMAWCRFEAEMRSGVAHLKLTDGEIIEKRVRAINRGLSAVIEALVHATRYVAIKSDERRKELLERIHYYREIVQKCGSEREKRAFEIIMEKIGEGHHHHHH,soluble
13,MSLRQDILLNNNWNFRFSHQVQGDTRRVDLPHTWNAQDALAGKIDYKRGIGNYEKALYIRPEWKGKRLFLRFDGVNSIADVFINRKHIGEHRGGYGAFIFEITDLVKYGEKNSVLVRANNGEQLDIMPLVGDFNFYGGIYRDVHLLITDETCISPLDYASPGVYLVQEVVSPQEAKVCAKVNLSNRAADGTAELQVLVTDGTKVICKESRNVSLKQGADILEQLPLLIQKPRLWNGCEDPFMYQVSISLHKDGKQIDSVTQPLGLRYYHTDPDKGFFLNGKHLPLHGVCRHQDRAEVGNALRPQHHEEDVALMREMGVNAIRLAHYPQATYMYDLMDKHGIVTWAEIPFVGPGGYADKGFVDQASFRENGKQQLIELIRQHYNHPSICFWGLFNELKEVGDNPVEYVKELNALAKQEDPTRPTTSASNQDGNLNFITENIAWNRYDGWYGSTPKTLATFLDRTHKKHPELRIGISEYGAGASIYHQQDSLKQPSASGWWHPENWQTYYHMENWKIIAERPFVWGTFVWNMFDFGAAHRTEGDRPGINDKGLVTFDRKVRKDAFYFYKANWNKQEPMIYLAEKRCRLRYQPEQTFMAFTTAPEAELFVNGVSCGKQKADTYSTVVWKNVKLTSGENIIRVTTPGKKPLTDEVTVEYKEDREGHHHHHH,soluble
14,MSLRSTLAGTVRTQQGEIYLNGDADWSQIENWRARVTAKGSKVRITVPPMVRMDVSPDVVFEATPNLFTLDGRVDVPWARIVVHDLPESAVGVSSDVVMLNDNLQPEEPKTASIPINSNLIVHVGNNVRIDAFGLKARLTGDLNVVQDKQGLGLNGQINIPEGRFHAYGQDLIVRKGELLFSGPPDQPYLNIEAIRNPDATEDDVIAGVRVTGLADEPKAEIFSDPAMSQQAALSYLLRGQGLESDQSDSAAMTSMLIGLGVAQSGQIVGKIGETFGVSNLALDTQGVGDSSQVVVSGYVLPGLQVKYGVGIFDSIATLTLRYRLMPKLYLEAVSGVDQALDLLYQFEFEGHHHHHH,soluble
15,MSLRTSGSRLNSVRCASALTISGWKNNCVIEFDASGRIQSLREDSQSDVDLDLKGTVIAGIPNLHSHAHQKVITGLTEHRIAGQDDFWGWRELMYRANARLDPEQLQTIARYLYIDMLQKGYTSVAEFHYLHHQPDGTPYADLSEMSAQLLEAASEAGIAITLLPVLYCRGGFKDEPVQDSQHRFFNNPERYLALLESCHSLCANNPDRSLGFAAHSLRAVSPSAMSSTIEAAGPMLEGAPIHIHVAEQMREVNDCIEINGARPVAWLYDQCDVNDRWCLVHATHVDPQEQALLAQSGAIVGLCPTTEANLGDGIFPAAELMTNNGFLGVGSDSQVCTSPAEELRLLEYSQRFSLQRRTVLVPDEAGSNGRALTTAAIIGGNRARGEPLAGLQPGARGDLVEIGSDHVEFAGRSPDQVLDTWIFSGPDNPVQNVVAGGRHVVHDGVHPAMESASRAYREMVNALDLSEGHHHHHH,soluble
16,MSLRVYVTGNITVDETWSIPDIPKKGASIHGVKVSQDIGGKGANQAIILSRCGIETRLIAATGNDSNGAWIRQQIKNEPLMLLPDGHFNQHSDTSIILNSADGDNAIITTTAAADTFSLDEMIPHMADAVAGDILLQQGNFSLDKTRALFQYARSRGMTTVFNPSPVNPDFCHLWPLIDIAVVNESEAELLQPYGVKTLVITQGAAGAWLVQEGQRQFCPAVPAEALDTTGAGDTFLAVMLASALLRGVAPDALALAHASRAAAITVSRRGTLSAFPGSRELAALLTTDGAEGHHHHHH,soluble
17,MSLSALIINEYREQGGTAISFPEDISRARQKLFRFLDNRFDSDQYRENVRELTPAIMAVLPVEFRTRLAPQNDTMSLIASAMKECSEAKQAVLLNAPEHQKMKEVSEGIASLFRLMPEQVGPLMTMVTSMLGVIEGHHHHHH,not soluble
18,MSLSAQHAAHAQADTITALGAYLTTLAESHGQDEVAQAMCEIATQTLPRSCGELWQLSLDREGWYHGGGWQTGTVLPPQGYTLRATLPRGPTDELRLPLQAHGLTVGEVRAPYEGLESEQEQQLLQTLSTAAAISLSGHLLQRRVRHRNVRDPLTGLFNRRYLEDTLERELHRARRVNAGLVLIRLEVDTLDAFAAEHGSETADRLMQAMADAVHHAFRGSDVCCRAGDDGFGILLPDASLDNGAMRAEAVREELAELRIHQRGRPLGPVTVSAGVAAYPDHSSNRDLLLDAAESAVTRARDEGGDVLRIAELVSPPNPNQGHHHHHH,soluble
19,MSLSARSSHLSQPVVKSVLVYRNGDPFYAGRRVVIHEKKVSSFEVFLKEVTGGVQAPFGAVRNIYTPRTGHRIRKLDQIQSGGNYVAGGQEAFKKLNYLDIGEIKKRPMEVVNTEVKPVIHSRINVSARFRKPLQEPCTIFLIANGDLINPASRLLIPRKTLNQWDHVLQMVTEKITLRSGAVHRLYTLEGKLVESGAELENGQFYVAVGRDKFKKLPYSELLFDKSTMREGHHHHHH,not soluble

# Reference: the DeepSol protein solubility set
